Measurements reported in patent publication US20260098093A1.

Target: recombinant human VISTA-Fc protein (R&D #7126-B7) (human) (UniProt Q9H7M9)
Test: ELISA: plate coated with human VISTA-Fc, LRIG1.HIS titrated (x axis labelled 'Antibody Concentration (log M)')

Chain of recombinant human VISTA-Fc protein (R&D #7126-B7) (human) (Q9H7M9 33-194 limits assumed): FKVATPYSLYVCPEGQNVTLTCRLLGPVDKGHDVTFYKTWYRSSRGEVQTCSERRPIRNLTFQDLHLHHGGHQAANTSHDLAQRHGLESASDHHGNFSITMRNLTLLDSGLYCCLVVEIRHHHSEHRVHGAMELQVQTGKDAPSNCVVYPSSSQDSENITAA

An EC50 (read off the curve) of 9 nM was found for “recombinant human LRIG1.HIS (from UniProt Q96JA1 35-794) (receptor)” in this work.
